Assay results from publication PMC11377297, “Mechanical disengagement of the cohesin ring” (Nature Structural & Molecular Biology, 2023).

Target: T1, Smc1^Psm1-SNAP subunit of the fission yeast cohesin tetramer (head-tagged variant, TMR-labelled) (fission yeast, UniProt O94383 1-1228, TMR fluorophore on the SNAP-tag)
T1 construct: Psm1 (Smc1), fission yeast cohesin subunit; source: recombinant, purified as part of the cohesin tetramer; not shown: SNAP-tag, C-terminal, kept
T1 sequence (looked up): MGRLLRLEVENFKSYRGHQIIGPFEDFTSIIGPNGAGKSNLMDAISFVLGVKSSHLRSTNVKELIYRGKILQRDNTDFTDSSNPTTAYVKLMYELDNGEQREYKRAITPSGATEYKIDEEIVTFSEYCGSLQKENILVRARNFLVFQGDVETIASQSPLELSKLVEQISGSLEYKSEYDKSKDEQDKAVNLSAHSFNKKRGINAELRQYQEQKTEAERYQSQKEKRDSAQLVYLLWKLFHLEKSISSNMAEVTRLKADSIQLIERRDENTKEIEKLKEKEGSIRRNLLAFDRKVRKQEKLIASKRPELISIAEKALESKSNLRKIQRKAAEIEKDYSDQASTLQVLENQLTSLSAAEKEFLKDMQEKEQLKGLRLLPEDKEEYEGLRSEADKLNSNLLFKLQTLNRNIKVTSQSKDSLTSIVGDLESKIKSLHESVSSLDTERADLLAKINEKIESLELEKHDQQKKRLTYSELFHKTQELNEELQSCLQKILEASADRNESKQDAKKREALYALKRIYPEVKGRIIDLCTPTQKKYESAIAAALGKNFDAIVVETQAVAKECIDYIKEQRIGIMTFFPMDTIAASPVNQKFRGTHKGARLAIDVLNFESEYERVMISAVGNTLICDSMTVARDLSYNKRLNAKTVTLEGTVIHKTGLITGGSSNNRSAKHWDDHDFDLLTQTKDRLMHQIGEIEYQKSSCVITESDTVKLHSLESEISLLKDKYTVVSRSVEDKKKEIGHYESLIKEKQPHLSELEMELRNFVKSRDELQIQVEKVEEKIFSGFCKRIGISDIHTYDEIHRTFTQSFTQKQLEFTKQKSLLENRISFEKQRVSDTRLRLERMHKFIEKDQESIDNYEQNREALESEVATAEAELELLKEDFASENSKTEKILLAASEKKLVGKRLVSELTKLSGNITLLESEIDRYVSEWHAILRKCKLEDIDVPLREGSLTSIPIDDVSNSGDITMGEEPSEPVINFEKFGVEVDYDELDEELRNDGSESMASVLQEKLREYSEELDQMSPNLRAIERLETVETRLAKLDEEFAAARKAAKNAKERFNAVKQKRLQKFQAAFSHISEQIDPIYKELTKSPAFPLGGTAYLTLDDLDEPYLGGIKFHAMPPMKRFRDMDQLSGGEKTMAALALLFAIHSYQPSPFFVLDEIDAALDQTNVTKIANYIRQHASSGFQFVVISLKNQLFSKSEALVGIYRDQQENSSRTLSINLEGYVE
Assay: co-purification of the recombinant complex (SDS-PAGE, Coomassie); purified cohesin complex resolved by SDS-PAGE; purification methods in the Supplementary Information

binding result: binds
B1: Smc3^Psm3-CLIP-biotin subunit of the fission yeast cohesin tetramer (head-tagged variant) (natural protein, UniProt O42649 1-1194, looked up)
chain: MYITKIVIQGFKSYKDYTVIEPLSPHHNVIVGRNGSGKSNFFAAIRFVLSDAYTHLSREERQALLHEGPGATVMSAYVEVTFANADNRFPTGKSEVVLRRTIGLKKDEYSLDKKTVSKTEVINLLESAGFSRSNPYYIVPQGRVTSLTNAKDSERLELLKEVAGTQIYENRRAESNKIMDETIQKSEKIDELLQYIEERLRELEEEKNDLAVYHKKDNERRCLEYAIYSREHDEINSVLDALEQDRIAALERNDDDSGAFIQREERIERIKAEITELNHSLELLRVEKQQNDEDYTNIMKSKVALELQSSQLSRQIEFSKKDESSKLNILSELESKISEKENELSEILPKYNAIVSEADDLNKRIMLLKNQKQSLLDKQSRTSQFTTKKERDEWIRNQLLQINRNINSTKENSDYLKTEYDEMENELKAKLSRKKEIEISLESQGDRMSQLLANITSINERKENLTDKRKSLWREEAKLKSSIENVKDDLSRSEKALGTTMDRNTSNGIRAVKDIAERLKLEGYYGPLCELFKVDNRFKVAVEATAGNSLFHIVVDNDETATQILDVIYKENAGRVTFMPLNKLRPKAVTYPDASDALPLIQYLEFDPKFDAAIKQVFSKTIVCPSIETASQYARSHQLNGITLSGDRSDKKGALTAGYRDYRNSRLDAIKNVKTYQIKFSDLQESLEKCRSEIESFDQKITACLDDLQKAQLSLKQFERDHIPLKDELVTITGETTDLQESMHHKSRMLELVVLELHTLEQQANDLKSELSSEMDELDPKDVEALKSLSGQIENLSHEFDAIIKERAHIEARKTALEYELNTNLYLRRNPLKAEIGSDNRIDESELNSVKRSLLKYENKLQIIKSSSSGLEEQMQRINSEISDKRNELESLEELQHEVATRIEQDAKINERNAAKRSLLLARKKECNEKIKSLGVLPEEAFIKYVSTSSNAIVKKLHKINEALKDYGSVNKKAYEQFNNFTKQRDSLLARREELRRSQESISELTTVLDQRKDEAIERTFKQVAKSFSEIFVKLVPAGRGELVMNRRSELSQSIEQDISMDIDTPSQKSSIDNYTGISIRVSFNSKDDEQLNINQLSGGQKSLCALTLIFAIQRCDPAPFNILDECDANLDAQYRSAIAAMVKEMSKTSQFICTTFRPEMVKVADNFYGVMFNHKVSTVESISKEEAMAFVEG
modifications: biotin on the CLIP-tag
notes: Psm3 (Smc3), fission yeast cohesin subunit; source: recombinant, purified as part of the cohesin tetramer; not shown: CLIP-tag, C-terminal, kept
